Target: T1, papain (UniProt P00784 134-345)
T1 sequence (looked up): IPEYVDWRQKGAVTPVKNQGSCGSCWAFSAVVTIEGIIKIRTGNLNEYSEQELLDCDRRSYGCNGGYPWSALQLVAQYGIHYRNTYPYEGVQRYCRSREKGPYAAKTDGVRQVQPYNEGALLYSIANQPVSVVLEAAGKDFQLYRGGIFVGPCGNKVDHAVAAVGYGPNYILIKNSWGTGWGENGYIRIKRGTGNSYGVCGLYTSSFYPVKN
Experiment: reversible inhibition of papain activity, Ki corrected for substrate competition (Km=60 µM)

B1: human Cystatin F (recombinant, produced in a baculovirus system) (other)
chain: GPSPDTCSQDLNSRVKPGFPKTIKTNDPGVLQAARYSVEKFNNCTNDMFLFKESRITRALVQIVKGLKYMLEVEIGRTTCKKNQHLRLDDCDFQTNHTLKQTLSCYSEVWVVPWLQHFEVPVLRCH
notes: 20-145 is used here; also called recombinant Cystatin F
B1 was tested, and the Ki was 1.05 nM.

Source: patent US20030114646A1 (Human Genome Sciences, published 2003)
